# Data as given in patent US7396816B2, “Low-molecular weight peptides inhibiting ion channel activity” (Pharmadesign, Inc., priority 2003, dated 2008).
# Where no end group is shown, it is not given here.
# Tests used:
# [1] = biological target: T1, Ca^2+ dependant BigK channel derived from heart muscle (myocardial SA channel) (Gallus gallus, UniProt Q8AYS8); experiment: single channel current recording by patch clamp (inside-out excised patch, back-fill); assay type: cell-based, chicken; settings: for inhibiting activity: primary screening, channel's open probability (Po); for level of inhibiting activity compared with GsMTx-4: suggested from time taken for inhibition; for inhibition of wild-type SA channel: wild-type myocardial SA channel, FIG. 13
# T1 construct: expressed in transfected cells; host or cells: CHO cells force-expressing the channel cDNA, or the endogenous channel of chicken ventricular muscle
# T1 sequence (Q8AYS8 1-1195 isoform Q8AYS8-3): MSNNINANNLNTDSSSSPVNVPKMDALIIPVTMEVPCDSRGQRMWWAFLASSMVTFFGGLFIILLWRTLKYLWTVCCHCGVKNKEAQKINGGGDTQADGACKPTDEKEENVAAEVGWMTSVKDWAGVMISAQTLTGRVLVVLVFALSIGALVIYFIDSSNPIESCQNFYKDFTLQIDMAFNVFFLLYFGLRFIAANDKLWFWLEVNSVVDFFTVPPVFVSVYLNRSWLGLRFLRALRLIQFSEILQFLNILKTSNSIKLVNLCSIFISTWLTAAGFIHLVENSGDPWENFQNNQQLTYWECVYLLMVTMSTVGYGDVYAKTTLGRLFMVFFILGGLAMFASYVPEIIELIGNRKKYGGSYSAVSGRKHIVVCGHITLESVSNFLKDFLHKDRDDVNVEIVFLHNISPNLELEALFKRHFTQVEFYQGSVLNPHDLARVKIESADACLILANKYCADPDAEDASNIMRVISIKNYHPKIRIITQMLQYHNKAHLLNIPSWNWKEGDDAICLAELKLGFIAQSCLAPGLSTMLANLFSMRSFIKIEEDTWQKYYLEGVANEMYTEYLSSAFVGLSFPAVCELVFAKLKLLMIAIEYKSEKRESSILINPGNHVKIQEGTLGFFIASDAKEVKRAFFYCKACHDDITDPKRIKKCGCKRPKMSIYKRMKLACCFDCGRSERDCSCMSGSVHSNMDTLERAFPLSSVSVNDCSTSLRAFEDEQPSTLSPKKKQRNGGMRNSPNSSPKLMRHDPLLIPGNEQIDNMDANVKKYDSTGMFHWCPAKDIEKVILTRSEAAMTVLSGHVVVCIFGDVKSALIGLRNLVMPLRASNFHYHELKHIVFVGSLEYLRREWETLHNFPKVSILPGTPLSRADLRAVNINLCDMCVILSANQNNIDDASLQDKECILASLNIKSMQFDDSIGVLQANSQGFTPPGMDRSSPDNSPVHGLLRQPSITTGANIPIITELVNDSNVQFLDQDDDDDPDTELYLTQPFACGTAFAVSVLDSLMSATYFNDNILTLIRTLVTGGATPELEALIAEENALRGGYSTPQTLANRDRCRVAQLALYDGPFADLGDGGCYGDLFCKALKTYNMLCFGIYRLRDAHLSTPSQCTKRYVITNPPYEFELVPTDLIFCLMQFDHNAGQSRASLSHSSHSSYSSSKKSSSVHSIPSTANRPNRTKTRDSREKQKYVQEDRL
# Method: Activity assay of the peptides was carried out by the most reliable single channel current recording method using the patch clamp method. As the subject of the assay, Ca^2+ dependant BigK channel (Kawakubo et. Am J Physiol, 276: H1827.1999) derived from heart muscle was employed. By applying this channel to the expressed ventricle muscle of chicken or to CHO cells force-expressing the cDNA of this channel with the cell-attached patch clamp method, an inside-out excised patch was formed, and single channel current recordings were taken under a fixed membrane potential. Assuming that the designed synthetic peptide blocks the channel extracellularly the same as GsMTx-4, the space a fixed distance above the glass pipette used for recording was filled with the peptide of a known concentration beforehand, and administration was carried out by back-fill which utilizes diffusion to reach the channel, With this method, the concentration of the peptide inside the pipette reaches equilibrium 15 to 20 minutes after the start of diffusion, and so the dissociation constant of the peptide can be estimated from the inhibition ratio at 20 minutes and onwards. Or, the relative inhibition of the peptide can be estimated from the time taken for inhibition. If the exact dissociation constant of the peptide is to be calculated, it is necessary to prepare an outside-out excised patch, take single channel current recordings, analyze the inhibition effects of various peptides with different concentration, and obtain a dose-inhibition curve; however, as this method requires special technology and as this is the primary screening of the various designed synthetic peptides, the assay method combining the inside-out excised patch and back-fill described above was used to make a rough estimate of the inhibition effects of the peptides. […] Concerning the scale of evaluation, the channel's open probability (Po, indicated in percentage) was used, and the level of inhibition was expressed by the inhibition ratio (percentage) with the control (prior to the administration of the peptide) as the standard, or by the time taken for inhibition.
# [2] = biological target: T2, STREX-deletion-mutant (Gallus gallus, UniProt Q8AYS8, DEL657-715); experiment: single channel current recording, specificity to mechano-sensitive channel; assay type: cell-based; settings: mutant lacking the 59 amino acid STREX sequence, FIG. 13
# T2 construct: expressed in transfected cells; host or cells: CHO cells (inferred: a deletion mutant must be expressed heterologously, and CHO is the only expression host named for this channel)
# T2 sequence (Q8AYS8 with tags, fused parts or gaps isoform Q8AYS8-3 DEL657-715): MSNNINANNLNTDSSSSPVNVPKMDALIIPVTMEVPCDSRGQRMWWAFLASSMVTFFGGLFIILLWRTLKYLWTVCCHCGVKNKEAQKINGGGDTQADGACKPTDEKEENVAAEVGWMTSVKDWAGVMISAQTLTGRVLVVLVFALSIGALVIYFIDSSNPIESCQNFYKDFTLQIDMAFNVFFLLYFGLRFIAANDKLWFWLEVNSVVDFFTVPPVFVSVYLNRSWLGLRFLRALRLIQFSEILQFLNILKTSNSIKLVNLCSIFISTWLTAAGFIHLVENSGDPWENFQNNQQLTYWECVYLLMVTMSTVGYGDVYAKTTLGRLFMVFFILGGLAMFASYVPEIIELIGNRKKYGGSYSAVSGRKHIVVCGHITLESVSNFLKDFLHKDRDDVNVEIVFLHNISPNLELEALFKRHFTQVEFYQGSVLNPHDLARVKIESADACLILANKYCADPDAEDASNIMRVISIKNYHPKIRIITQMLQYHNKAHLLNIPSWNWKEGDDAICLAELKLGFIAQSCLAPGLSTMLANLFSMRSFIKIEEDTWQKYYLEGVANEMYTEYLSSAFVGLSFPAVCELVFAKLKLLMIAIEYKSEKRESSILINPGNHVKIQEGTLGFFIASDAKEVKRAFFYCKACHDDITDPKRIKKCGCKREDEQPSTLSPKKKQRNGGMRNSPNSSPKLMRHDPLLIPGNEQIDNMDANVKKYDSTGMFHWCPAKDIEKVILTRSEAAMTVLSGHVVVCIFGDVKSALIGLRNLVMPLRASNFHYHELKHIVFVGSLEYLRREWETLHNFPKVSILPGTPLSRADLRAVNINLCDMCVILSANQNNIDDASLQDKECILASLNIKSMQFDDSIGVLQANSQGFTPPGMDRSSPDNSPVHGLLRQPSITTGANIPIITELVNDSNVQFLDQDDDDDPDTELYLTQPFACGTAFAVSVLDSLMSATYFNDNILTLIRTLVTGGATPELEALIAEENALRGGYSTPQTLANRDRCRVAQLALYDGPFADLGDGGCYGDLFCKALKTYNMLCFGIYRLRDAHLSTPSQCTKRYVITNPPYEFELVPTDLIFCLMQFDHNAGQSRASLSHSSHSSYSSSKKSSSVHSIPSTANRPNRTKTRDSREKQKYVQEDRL
# Method: Activity assay of the peptides was carried out by the most reliable single channel current recording method using the patch clamp method. As the subject of the assay, Ca^2+ dependant BigK channel (Kawakubo et. Am J Physiol, 276: H1827.1999) derived from heart muscle was employed. By applying this channel to the expressed ventricle muscle of chicken or to CHO cells force-expressing the cDNA of this channel with the cell-attached patch clamp method, an inside-out excised patch was formed, and single channel current recordings were taken under a fixed membrane potential. […] If the exact dissociation constant of the peptide is to be calculated, it is necessary to prepare an outside-out excised patch, take single channel current recordings, analyze the inhibition effects of various peptides with different concentration, and obtain a dose-inhibition curve; however, as this method requires special technology and as this is the primary screening of the various designed synthetic peptides, the assay method combining the inside-out excised patch and back-fill described above was used to make a rough estimate of the inhibition effects of the peptides. […]
substance,measurement,setting,value
TVP017: mutation in which the 3rd R from the N-terminus of TVP004 had been substituted by A (CAAPKLKC),inhibition (channel's open probability Po vs control),[1]; after 6 minutes,100%
same,inhibiting activity,[1],found to show inhibiting activity
same,level of inhibiting activity compared with GsMTx-4,[1],higher level than
same,level of inhibition compared with TVP003,[1]; time taken for inhibition,even higher level of inhibition than TVP003
WKCNPNDDKC [TVP003],inhibition (channel's open probability Po vs control),[1]; after 8 minutes,100%
same,dissociation constant,[1]; estimated from inhibition ratio,μM order or lower
same,inhibiting activity,[1],displayed inhibiting activity
same,level of inhibiting activity compared with GsMTx-4,[1],the same as or higher than
same,inhibition of wild-type SA channel,[1],inhibit the wild-type SA channel
same,inhibition of STREX-deletion-mutant,[2],do not inhibit the STREX-deletion-mutant hardly at all
TVP019: mutation in which the 7th K from the N-terminus of TVP004 had been substituted by A (CARPKLAC),inhibition (channel's open probability Po vs control),[1]; after 14 minutes,approximately 80%
same,inhibiting activity,[1],found to show inhibiting activity
GsMTx-4 (GCLEFWWKCNPNDDKCCRPKLKCSKLFKLCNFSSG; disulfide (positions not given here); ends not checked; listed as Grammostola spatulata) [reference compound],inhibition of wild-type SA channel,[1],inhibit the wild-type SA channel
same,inhibition of STREX-deletion-mutant,[2],do not inhibit the STREX-deletion-mutant hardly at all
TVP005: designed peptide from GsMTx-4 comprising loops 2 and 3 (WKCNPNDDKAARPKLKC),inhibition (channel's open probability Po vs control),[1]; after 20 minutes,about 60%
same,inhibiting activity,[1],displayed inhibiting activity
TVP004: designed peptide from GsMTx-4 comprising loop 3 (CARPKLKC),inhibition (channel's open probability Po vs control),"[1]; 10 μM, after 16 minutes",95%
same,inhibition (channel's open probability Po vs control),[1]; after 8 minutes,about 60%
same,inhibiting activity,[1],displayed inhibiting activity
